Target: the molecule itself
Assay: cryo-EM structure; TWIK1 in MSP1D1 nanodiscs (2:1:1 DOPE:POPS:POPC), 20 mM HEPES pH 7.4, 150 mM KCl, 1 mM EDTA; C2 symmetry imposed; homodimer

B1: Rattus norvegicus TWIK1 (natural protein)
chain: MLQSLAGSSCVRLVERHRSAWCFGFLVLGYLLYLVFGAVVFSSVELPYEDLLRQELRKLKRRFLEEHECLSEPQLEQFLGRVLEASNYGVSVLSNASGNWNWDFTSALFFASTVLSTTGYGHTVPLSDGGKAFCIIYSVIGIPFTLLFLTAVVQRVTVHVTRRPVLYFHIRWGFSKQVVAIVHAVLLGFVTVSCFFFIPAAVFSVLEDDWNFLESFYFCFISLSTIGLGDYVPGEGYNQKFRELYKIGITCYLLLGLIAMLVVLETFCELHELKKFRKMFYVKKDKDEDQVHIMEHDQLSFSSITEQAAGLKEEQKQNEPFVASQSPPYEDGSANHSNSLEVLFQ
notes: TWIK1 (K2P1.1, KCNK1), Rattus norvegicus, Uniprot Q9Z2T2, full length; gene codon-optimized for Pichia pastoris; W20-Y281 modeled at pH 5.5, G24-F280 at pH 7.4; linker SNS and the part of the human rhinovirus 3C site (LEVLFQ/GP) left on the C-terminus after cleavage of EGFP-His10; cleaved on the resin with PPX before SEC and nanodisc reconstitution (MSP1D1 at pH 7.4, MSPE3D1 at pH 5.5); also …
stoichiometry N: 2

From paper PMC9184524, “Structural Basis for pH-gating of the K^+ channel TWIK1 at the selectivity filter” (Nature Communications, 2022)
